Sequences and labels used below:
T1: huNectin4-His (human, UniProt Q96NY8 32-349)
T1 construct: Immobilized on the SPR chip; also called humanNectin4; human Nectin4; not shown: His tag
T1 sequence (looked up): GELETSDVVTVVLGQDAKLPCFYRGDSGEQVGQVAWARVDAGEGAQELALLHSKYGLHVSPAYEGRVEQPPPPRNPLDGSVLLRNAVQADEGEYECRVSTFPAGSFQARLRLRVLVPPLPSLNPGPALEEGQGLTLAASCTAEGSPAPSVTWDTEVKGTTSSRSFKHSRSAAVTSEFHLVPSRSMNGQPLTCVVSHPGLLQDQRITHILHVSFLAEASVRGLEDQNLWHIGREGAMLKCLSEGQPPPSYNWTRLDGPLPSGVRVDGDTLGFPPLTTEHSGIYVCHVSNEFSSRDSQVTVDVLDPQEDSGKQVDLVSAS

T2: recombinant human Nectin4 antigen (human, UniProt Q96NY8 32-349)
T2 construct: construct not described
T2 sequence (looked up): T1 sequence (looked up)

T3: RatNectin4-His (rat, UniProt D3ZET1 31-348)
T3 construct: Immobilized on the SPR chip; not shown: His tag
T3 sequence: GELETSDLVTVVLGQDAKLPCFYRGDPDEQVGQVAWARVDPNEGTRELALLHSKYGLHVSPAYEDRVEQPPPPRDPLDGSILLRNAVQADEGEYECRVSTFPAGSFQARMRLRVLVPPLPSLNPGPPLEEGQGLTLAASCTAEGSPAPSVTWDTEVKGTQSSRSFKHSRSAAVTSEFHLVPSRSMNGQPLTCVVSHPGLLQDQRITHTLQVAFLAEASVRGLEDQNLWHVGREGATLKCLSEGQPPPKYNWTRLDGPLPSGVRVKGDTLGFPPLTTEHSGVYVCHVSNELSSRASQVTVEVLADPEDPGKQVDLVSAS

B1: BAP-143-wildtype (antibody, V domains shown)
VH: EVQLVESGGGLVQPGGSLRLSCAASGFTFSSYNMNWVRQAPGKGLEWVSYISSSSSTIYYADSVKGRFTISRDNAKNSLSLQMNSLRDEDTAVYYCARAYYYGMDVWGQGTTVTVSS
VL: DIQMTQSPSSVSASVGDRVTITCRASQGISGWLAWYQQKPGKAPKFLIYAASTLQSGVPSRFSGSGSGTDFTLTISSLQPEDFATYYCQQANSFPPTFGGGTKVEIK
notes: 150 kDa used in SPR; also called BAP143-00-00; benchmark (BM)
B2: BAP-143-06-24-16 (antibody, V domains shown)
VH: EVQLVQSGAEVKKPGATVKISCKVSGFTFSSYNMNWIRQSPSRGLEWLGYISSSSSTIYYADSVKGRFTISRDNSKNTLYLQMNSLRAEDTAVYYCARAYYYGDDVWGQGTLVTVSS
VL: B1 VL with R24H
notes: Used as a conjugate with a linker payload (CAB ADC)
B3: BAP-143-06-33-16 (antibody, V domains shown)
VH: B2 VH
VL: B1 VL with L33E
notes: as for B2
B4: BAP-143-07-03-12 (antibody, V domains shown)
VH: B1 VH with V106K
VL: B1 VL with L33E
notes: as for B2
B5: BAP-143-00-01 (antibody, V domains shown)
VH: B1 VH
VL: B1 VL with L33E
notes: as for B2
B6: BAP-143-06-33-03 (antibody, V domains shown)
VH: QVQLVQSGAEVKKPGASVKVSCKASGFTFSSYNMNWVRQARGQRLEWIGYISSSSSTIYYADSVKGRFTISRDNSKNTLYLQMNSLRAEDTAVYYCARAYYYGMDKWGQGTLVTVSS
VL: B1 VL with F94E
notes: as for B2

Changes are numbered by the printed parent chain.

The first experiment has as its target T1, huNectin4-His. In words: SPR, huNectin4-His immobilized, pH 6.0. The procedure:
Binding kinetics of anti-Nectin4 antibodies were measured by surface plasmon resonance using a SPR2/4 instrument (Sierra Sensors, Hamburg, Germany) and flat amine sensor chips. The SPR sensor contained four flow cells (FC1-FC4), each of which was addressed individually or in groups. huNectin4-His was immobilized in FC2, and cynoNectin4-mFc in FC4. No protein was immobilized in FC1 and FC3 which were used as control surfaces for FC2 and FC4, respectively.
(§1) All injections were done at a flow rate of 25 μL/min at 25° C. The sensor surface was activated with 1-ethyl-3-(3-dimethylaminopropyl)-carbodiimide (EDC) and N-hydroxysuccinimide (NHS) (200 mM/50 mM) for 480 seconds. HuNectin4-His (2 μg/mL in 10 mM NaAc, pH4.5) was injected for 480s and the surface was inactivated by injecting 1M ethanolamine-HCl for 480s. CynoNectin4 was immobilized using the same conditions as described for huNectin4-His, except that the cynoNectin4 was diluted into 10 mM NaAc buffer having pH 5.0. The control surface was activated and deactivated using the same conditions, but without injecting protein. PBST buffer (PBS pH 7.4 with 0.05% TWEEN20™) was used as running buffer for the surface preparation. The running solution was switched to PBST with 30 mM sodium bicarbonate with the pH adjusted as indicated in the figures before the analyte injections. The instrument was equilibrated with the running solution for one hour before the first analyte injection.
(§2) The off-rate was measured for 360s. The chip surface was regenerated after each cycle of interaction analysis by injecting 6 μL of 10 mM glycine (pH 2.0). Flow cells 1 and 3 without immobilized protein were used as control surfaces for reference subtraction.
For orientation: SPR reads the build-up and loss of mass on a sensor chip optically.
One may read the Kd as the free concentration of one partner at which half of the binding sites on the other are occupied at equilibrium, for simple one-to-one binding. On to B1, for which binding was characterised by a dissociation constant (Kd) of 0.149 nM.
One may read the koff as the rate constant with which the complex falls apart. As a reminder, the kon is the rate constant with which the complex forms. The molecule B2 registered a Kd of 0.0944 nM, a koff of 0.00033 s⁻¹ and a kon of 3.5e+06 M⁻¹ s⁻¹.
Molecule B3 showed a Kd of 0.11 nM, a koff of 0.000195 s⁻¹ and a kon of 1.77e+06 M⁻¹ s⁻¹.
The molecule B4 displayed an equilibrium dissociation constant (Kd) of 0.69 nM, a koff of 0.000869 s⁻¹ and a kon of 1.26e+06 M⁻¹ s⁻¹.
In turn, B5 returned a Kd of 0.739 nM, a koff of 0.000771 s⁻¹ and a kon of 1.04e+06 M⁻¹ s⁻¹.

The target in another experiment is T2, recombinant human Nectin4 antigen. In words: ELISA, coated antigen, PSB pH 6.0. The procedure:
1) Coat ELISA plates with 100 μL of 1 μg/mL recombinant human Nectin4 antigen or cynoNectin4 antigen in carbonate-bicarbonate coating buffer. […] 2) Cover plates with sealing film and incubate overnight at 4° C. [0444] 3) Decant plates and tap out residual liquid on a stack of paper towels. [0445] 4) Wash wells twice by dispensing 200 μL of pH 6.0 or pH 7.4 ELISA incubation buffer to the wells and completely aspirate the contents. [0446] 5) Add 200 μL of pH 6.0 or pH 7.4 ELISA incubation buffer to the wells. Cover with sealing film and place the plate onto a plate shaker set to 50 rpm for 60 minutes at room temperature. [0447] 6) Decant plates and tap out residual liquid on a stack of paper towels. […] 7) Serially dilute test articles in 3-fold dilutions starting at 3000 ng/mL in pH 6.0 or pH 7.4 ELISA incubation buffer. […] 8) Add 100 μL/well of diluted test articles to the plates [0450] 9) Cover with sealing film and place the plates onto a plate shaker set to 50 rpm for 60 minutes at room temperature. [0451] 10) Decant plates and tap out residual liquid on a stack of paper towels. [0452] 11) Wash wells three times by dispensing 200 μL of pH 6.0 or pH 7.4 ELISA wash buffer to the wells and completely aspirate the contents. […] 12) Dilute the HRP secondary antibody at 1:2500 in pH 6.0 or pH 7.4 ELISA incubation buffer. [0454] […] 14) Cover with sealing film and place the plates onto a plate shaker set to 50 rpm for 60 minutes at room temperature. […] 15) Decant plates and tap out residual liquid on a stack of paper towels. […] 16) Wash wells three times by dispensing 200 μL of pH 6.0 or pH 7.4 ELISA wash buffer to the wells and completely aspirate the contents. [0458] 17) Dispense 50 μL per well of the TMB substrate solution into all wells of the plates.
(An ELISA detects its analyte on a solid surface through an enzyme-linked reagent.)
As a reminder, the EC50 is the concentration at which the effect is half-maximal. Consider B1, for which the EC50 amounted to 0.0216 µg/mL.
Still for that read-out and setting: with B6 the figure was 0.0575 µg/mL; with B2, 0.0368 µg/mL; with B3, 0.0669 µg/mL.
In the case of B4, the EC50 amounted to 0.0533 µg/mL.

In the next experiment the target is T3, RatNectin4-His. Nature of the experiment: SPR, RatNectin4-His immobilized, pH 6.0. The procedure:
as §1, §2
In addition, data with buffer only as analyte (0 nM analyte) was subtracted from each run. Double subtracted data was fitted with the provided analysis software Analyzer R2 (Sierra Sensors) using a 1:1 binding model. A molecular weight of 150 kDa was used to calculate the molar concentrations of the analytes. RatNectin4-His was immobilized in FC3 using the same conditions as described for cynoNectin4.
Turning to B1, binding was characterised by a dissociation constant (Kd) of 0.175 nM.
On to B2, for which the affinity, expressed as Kd, was 0.104 nM; the koff came out at 0.000635 s⁻¹; the kon stood at 6.1e+06 M⁻¹ s⁻¹.
On to B3, for which binding was characterised by a dissociation constant (Kd) of 0.154 nM, the koff is 0.000394 s⁻¹ and the kon turned out to be 2.57e+06 M⁻¹ s⁻¹.
For B4, the Kd is 0.738 nM, the koff came out at 0.0012 s⁻¹ and the kon was determined as 1.62e+06 M⁻¹ s⁻¹.
Molecule B5 gave a Kd of 1.17 nM, a koff of 0.00159 s⁻¹ and a kon of 1.36e+06 M⁻¹ s⁻¹.

(Values after patent US20230235054A1 (BIOATLA, published 2023).)
